Fewer inactive variants are shown than the library holds.
B1: TPR 5TU (parent)
chain: GGAUCUUCUCGAUCUAACAAAAAAGACAAAUCUGCCACAAAGCUUGAGAGCAUCUUCGGAUGCAGAGGCGGCAGCCUUCGGUGGCGCGAUAGCGCCAACGUUCUCAACUAUGACACGCAAAACGCGUGCUCCGUUGAAUGGAGUUUAUCAUG

Variants of: B1
Experiment: polymerase ribozyme fitness, log enrichment relative to wild type (log ratio); higher = more active; in vitro selection for triplet polymerase activity
In short: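 Frozen incubation at −7 °C formed the core of a single, triplicate in vitro selection round applied to PCR-built, transcribed mutant libraries of each subunit of a heterodimeric triplet polymerase ribozyme. Extended constructs were gel-excised, captured with streptavidin beads and amplified by RT-PCR, and input and output libraries were Illumina-sequenced with a filter of ≥10 input reads and ≥1 read per output. Fitness is the logarithm of genotype enrichment relative to wild-type enrichment, with inverse-variance-weighted replicate averaging, and the logarithm is base 2.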

| Variant | polymerase ribozyme fitness (log ratio) |
| --- | --- |
| G58A C95U G143C | -1.9 |
| U56A C149A | -3.67 |
| C57A A121U | -0.0826 |
| C57U C125A | -0.844 |
| U56A C93U A147G | -1.96 |
| C57A G140A | ≤ -4.2 |
| U56G G84A A91G A115G | -4.1 |
| C57A G62A G86A A113G A120U U127C G136A A142C | ≤ -4.2 |
| C57G U101A | 0.403 |
| C57G G117U G124C | -1.64 |
| U56G G65C G67C C85A C93G C118U C149A | ≤ -4.2 |
| U55G G67C U78G G83U C93A U102A A121C | ≤ -4.2 |
| C57U C95A U109G | -0.696 |
| G58A A147U | 0.692 |
| U55G A98G | -0.84 |
| G58C A60G G92A A121U | -2.24 |
| U56C G58U C114U A119U | -1.67 |
| U55C C95U C103A | -1.54 |
| C57A A73U G84A U135A | -2.22 |
| C57A C95A C96U G141A | -4.07 |
| G58A C87A | ≤ -4.2 |

| Variant | polymerase ribozyme fitness (log ratio) |
| --- | --- |
| C57U C95G A120G G143A | -2.18 |
| C57U C85U U146G | -1.44 |
| U56C C79U | -1.8 |
| C57U A97U | -1.22 |
| G58A A73G G88C A150U | ≤ -4.2 |
| U56C G94C | 0.00198 |
| C57A G59C A60G | 0.42 |
| U56G G141U | 0.498 |
| U56A C96U U101C U139G | -0.437 |
| U56A A73U C87G C99G | ≤ -4.2 |
| G58A C85G A115G | -2.89 |
| C57U C95A G136A | -0.1 |
| C57A A89G A91G U145C U151G | ≤ -4.2 |
| G58A G83A C87U U101G G141C | -3.39 |
| C57G C96G U104G | -4.16 |
| C57U G68U | -3.89 |
| U55G G62A | -2.48 |
| U56G G71C C123G | -3.58 |
| U56G U148G | -3.89 |
| C57U G86A C99G | -3.33 |
| U56A U61G | -1.7 |

| Variant | polymerase ribozyme fitness (log ratio) |
| --- | --- |
| U56A U61A | -1.51 |
| U56A G84C | -1.66 |
| U56A G84U | -1.11 |
| U55C G62A A64C C72G G140U U144A | ≤ -4.2 |
| G58C A60G G67A C69A G92U G112A G143C | ≤ -4.2 |
| U56G G58A C63G U101G A120U | -2.56 |
| C57U G84U G126C | -0.969 |
| C57G C93A | -2.2 |
| C57G C93G | -4.06 |
| C57U G124U G128U | -3.76 |
| U56C C93U | -1.53 |
| C57G C93U A115U | -3.44 |
| G58A C99U | -0.207 |
| C57A A98G C123G U145G | 0.398 |
| C57U C79A | -4.19 |
| C57A C72U C99A C103G G140C | ≤ -4.2 |
| U55G C87U G92A U101G G143U | -3.33 |
| U56A G74U C85G G133U | ≤ -4.2 |
| U56G G59A | -1.14 |
| U56C U78G C85U A89G | ≤ -4.2 |
| C57G C87U A89C C116A C132A | -4.13 |

| Variant | polymerase ribozyme fitness (log ratio) |
| --- | --- |
| G58A G143U | -1.82 |
| U56A U61G G65A C85A G86A A121U U127A | ≤ -4.2 |
| C57G G70A C87U C123A | ≤ -4.2 |
| G58A A73U C96U | -0.178 |
| U56A C69A | -1.46 |
| C57G A115U U145A | -1.54 |
| U56A U101G | 0.0793 |
| C57U G59C C93A U135G | ≤ -4.2 |
| C57U C87G G88U C95G C116U C123A U134C | ≤ -4.2 |
| U55C G70A | -3.5 |
| U56A C75A G141A | ≤ -4.2 |
| U55G G92C | -0.157 |
| U55G G92A | -3.13 |
| U56A G141U | 0.137 |
| U56C A64U C93A C95U G133C | ≤ -4.2 |
| C57U C79A A110C | ≤ -4.2 |
| G58C A106C | 0.355 |
| U56A C93U U127C | -2.73 |
| G58A C87G A142C | ≤ -4.2 |
| U56A C63U A64U G84A G128A | ≤ -4.2 |
